Source: patent US6670452B2, “Non-naturally occurring lipoprotein particle” (University of Strathclyde, priority 1996, dated 2003)
“Also recorded” adds a separate entry of the source. No end group written: not given here. lipid anchor = not defined here

Assays:
[1] = Particle size by photon correlation spectroscopy; type: physicochemical; details: for Peptide concentration producing increases in diameter: FIG. 8; for Effect of increasing peptide concentration on particle diameter: FIG. 8, Number Mean Diameter
Protocol: Particle size analysis was carried out using photon correlation spectroscopy (Zetasizer® Model 4, Malvern Instruments, Malvern, (UK). Before analysis samples were diluted with Tris-HCl buffer (0.01M) and filtered (0.2 μm). Sizing measurements were carried out at a fixed angle of 90° to the incident beam. The correlator was operated in parallel mode to allow for more accurate size distribution measurements. The cumulants method of analysis was used to calculate the mean sample size weighted according to the intensity of scattered light (z-average diameter). Since this diameter is weighted strongly on favour of large particles, Rayleigh theory was used to convert intensity distributions into number distributions [^12]. The viscosity and refractive index values of pure water were used in the size calculations. All results quoted are the mean and standard deviation of at least 10 measurements.

B16 cells = experiment: 14C-nLDL cell binding assay at 4° C.; details: peptide 0.03 mol/mol cholesterol
Protocol: The required quantity of 14C-cholesteryl oleate (0.5 μCi-/mmol CO, supplied dissolved in toluene) was mixed if required with ten times its volume of DMSO prior to addition to stirred nLDL heated at 55° C. in a water bath. After incubation for 5 hours the mixture was passed down a Sephadex G-25M gel exclusion chromatography column (bed volume 10 ml) eluted with PBS. Fractions (1 ml) were collected their absorbance (300 nm) and 14C-cholesteryl oleate activity measured. Labelled preparations were filter sterilised (0.2 μm) and stored at 4° C. under N2 before use.
B16 cells were maintained in RPM: 1640 medium supplemented with 10% v/v FCS incubated at 37° C. in a 5% CO2 in air atmosphere. Confluent cultures were trypsinised, harvested and re-seeded at a dilution of 1 in 20 in fresh medium.
B16 cells were harvested in the log growth phase, washed by centrifugation and re-seeded into 24 well plates 1×10^5 cells/ml in media containing 10 v/v DFCS. After overnight incubation the cells were cooled to 4° C. for 1 hour, the media aspirated and replaced with ice cold media containing 10% v/v DFCS, supplemented with 14C-nLDL at a cholesterol concentration of 0.08 mmol/l. Four replicate wells were used for each concentration. Cells were then incubated at 4° C. for 4 hours with occasional rocking, the media aspirated and cells washed three times with ice cold PBS/BSA buffer (2 mg/ml BSA in PBS) followed by two ten minute incubations with ice cold PBS/BSA. Three final washes with ice cold PBS were then conducted. The 14C-cholesteryl oleate was extracted with hexane/isocropanol for 30 minutes at room temperature, aspirated and then mixed with 3 ml of scintillation fluid prior to counting. Cellular protein left in the well after extraction was assayed using Peterson's modification of the Lowry method^14. Sodium deoxycholate (1.5 mg/ml) was added to solubilise the protein, which was then precipitated by the addition of trichloroacetic acid (72% w/v), pelleted by centrifugation (5,000 rpm 10 minutes), the supernatant discarded and the pellet solubilised in Lowry reagent at room temperature for 20 minutes. Folin Ciocalteu's reagent was added, the solutions mixed and the colour allowed to develop for 30 minutes prior to absorbance measurements at 690 nm using a plate reader. A calibration curve was clotted from BSA standards ranging from 20 to 200 μg/ml.

U937 cells = experiment: U937 cell growth (proliferation) assay; type: cell-based; details: DFCS 5% v/v, peptide 0.03 mol/mol cholesterol oleate, 72 hours, range of cholesterol concentrations
Protocol: U937 stock cultures were grown at 37° C. in RPMI 1640 media supplemented glutamine (10 mM), gentamicin (50 μg/ml), fungizone (0.5 μg/ml) and 10% (v/v) foetal calf serum (FCS). Cells were maintained in a humidified 5% CO2, atmosphere between 1-8×10^5 cells/ml and sub-cultured twice weekly.
All growth assays were conducted over 72 hours in 24 well plates unless otherwise indicated. One day before each growth experiment, cells were centrifuged at 1500 rpm for 5 minutes and resuspended in RPM: medium containing 5% (v/v) delipidated foetal calf serum (DFCS) to initiate cholesterol starvation and up regulate LDL receptors. Cells were collected by centrifugation and seeded at 1×10^5/well. Appropriate amounts of cholesterol (either LDL, microemulsion or nLDL) were then added after filtration (0.2 μm) and the well volume made up to 1 ml with RPMI containing 5% (v/v) DFCS. After 72 hours an aliquot of each well was diluted with PBS and the number of cells present determined in triplicate by Coulter Counter. Different concentrations were repeated four or eight times depending on the experiment. Three wells per experiment were checked at random before commencement of incubation to ensure a uniform cell density was achieved. […] In all cases, the mean starting cell densities of control resells were between 0.95 and 1.05×10^5 cells/ml.

[2] = Zeta potential measurement; type: physicochemical; details: for Zeta potential increase at low peptide concentrations: below 0.2 moles/mole CO, diameter unchanged; for Changes of mean number diameter and zeta potential in altered surface lipid formulations (FIG. 10): microemulsion formulations with PC, SM, UC, TO, CO; for Zeta potential reached with increasing peptide concentration: plateau / constant value, FIG. 8, pH 8.0 Tris, 25° C.
Protocol: Samples were diluted 1 in 5 with 0.01M Tris buffer (pH 8.0) and zeta potential measured at 25° C. using the Zetasizer® 4 (Malvern Instruments). The applied voltage was 150V in each case and duty cycling was used to limit the cell current to 20 mA. All results quoted are the mean and standard deviation of at least 10 measurements.

Row | Substance | Peptide concentration producing increases in diameter [1] [moles /mole CO] | Effect of increasing peptide concentration on particle diameter [1] | Total binding curve to B16 cells (FIG. 11) (B16 cells) | Growth of U937 cells induced by different nLDL preparations (FIG. 4) (U937 cells) | Zeta potential increase at low peptide concentrations [2] | Effect of peptide on zeta potential ([2]; increasing peptide concentrations, FIG. 8) | Changes of mean number diameter and zeta potential in altered surface lipid formulations (FIG. 10) [2] | Zeta potential reached with increasing peptide concentration [2] | Difference in zeta potential between the lipid formulations ([2]; FIG. 10)
1 | Peptide C: twenty two amino acid peptide containing the Apo B binding region, with both lipid anchors (FIG. 7) ({lipid anchor}-YKLQGTTRLTRKRGLKLATALS; not fully specified (C-terminus); reading uncertain; also: C-terminal lipid anchor) | 0.2 | diameter almost doubles | saturable increase in total binding | greatest increase in proliferation | double the effect | reversal of zeta potential | large alterations in both parameters | – | –
2 | Peptide B: eleven amino acid Apo B binding site peptide without the C-terminal cholesterol anchor (FIG. 7) ({lipid anchor}-GTTRLTRKRGLKL; not fully specified; reading uncertain) | – | size also remains constant; also recorded: no effect at any concentration | saturable increase in total binding | greatest increase in proliferation | roughly equal | – | reversal of zeta potential with little change in diameter | ~+15 mV | –
3 | Peptide D: twenty two amino acid peptide with the cholesterol anchor removed (FIG. 7) (YKLEGTTRLTRKRGLKLATALS; also: lipid anchor, cholesterol anchor removed) | – | – | saturable increase in total binding | greatest increase in proliferation | – | – | – | – | –
4 | Peptide A: eleven amino acids Apo B binding site peptide with both C and N terminal lipid anchors (FIG. 7) ({lipid anchor}-LRLTRKRGLKL; not fully specified (C-terminus); reading uncertain; also: C-terminal lipid anchor) | 0.5 | Below 0.5 moles/mole Co Peptide A has no effect on size | – | least effective | roughly equal | – | reversal of zeta potential with little change in diameter | around +17 mV | significant difference in zeta potential between the lipid formulations
5 | Peptide E: random, non Apo B binding region sequence based on the amino acids of the previous peptides (FIG. 7) (TGKRYRLKTLRTLKKTSLLEAA; ()..() Synthesised peptide analogue of the Apo B 100 binding site) | – | – | saturable increase in total binding | least effective | – | – | – | – | –
